Assay: soluble on expression in E. coli; label from the status in PepcDB or PDB records

Sequence	soluble on expression in E. coli
MLGGNNDNPVPQVLMNDSQFRYQSNTSLNQLHLLGTMRAGCTIDPVNYFANDNLAPMMRLNSTRGRETENNNIMQRQQKLQISLNYNYNNNNTVVQDEVPKQNLVSTGLRLSYDDDERNSSVTSANGSITTPVYQSLGDNIRLDLNRQNDELDQFIKFRADQMAKGVRDIKQRHVTSFVTALEKDVSKKLQEKDHEIESMNKKNRELVDKIKQVAVEAQNWHYKAKYNESVVNALKVNLQQVMSHGNDNNAVGGGVADHHQMKEGFGDSEIDDEAASYNYLNIPGMPSTGMRCKLCNVKNVSVLLVPCRHLSLCKDCDVFTGVCPVCQSLKTSSVQVFFF	soluble
MQIKLANPRGFCAGVDRAIEIVNRALEVFGPPIYVRHEVVHNKFVVEDLRSRGAIFVEELEQVPDDVIVIFSAHGVSQAVRTEAAGRGLKVFDATCPLVTKVHIEVARYSRDGRECILIGHAGHPEVEGTMGQYDAVNGGAIYLVEDEADVASLEVRNPESLAFVTQTTLSMDDTSRVIDALRKRFPAIGGPRKDDICYATQNRQDAVKQLADECDVVLVVGSPNSSNSNRLRELAERMATPAYLIDGAEDMQKGWFDGVERIGITAGASAPEVLVRGVIQQLQAWGATGADELAGREENITFSMPKELRVKSLLLEHHHHHH	not soluble
RCPELYRGVVMLDSPVLGLADKLFIRAAKRLGFIDRITPAGRTLGRRDAFADLDAARTYFASKTLFRRFDPDCLTAYLQHGLQQDGEQLRLRFDPATEISIYRSIPHTSPLPSRQLKVPLAMVRGKHSRVIMPHHGYLARRMRDGEYLSMPGGHMFPLERPDETAQLLKSLFARWDA	not soluble
MAHHHHHHMPLKFAPKALNPEDSMRLAVVHMLRHDNAVILQTFTGNRGSSATRHGRLLRFMPHFPFCPTEKTGETAEEAPHLVEIAPLQLPYWARGSSRETMWPAARTPEAVHPSPPHFPHFLAERSSSLFVSISLPHFDLPLVFASPRREQRCSRDCRAEWLPRAVMDRDVAATWDEMLSAFCAAWSAAVRIEKTPFALLPPSLSHPLLAEQPLGEGRVPLQDEPAASFRLDPIVVPRRKLDRQRSERMLPPILAVDVAGKWNDTPSVFKSQEAALQRRFLAVARTLERTTAAPSRPLIVASVETPLTSDAAGECERLELASVVVPPFMCTQRMKAGRPWREGGHAGGRDTLVQEHSESLFSRMPPCMTRATELRFPDGKHMRQTLTLRNTAKERLEKLCGLRPPRRHRQKMAECFSTSKFSIARSRELAAAALLPSTVLSAASRVKPPHCSERKRRRGDVPPPPPPLQLLPHVRATAVFAFSSWQPLTLEEEEEENNDTCCEEELKIAPWRVFPREVELQSFQQLLERRIERNGKAMRVGNDDEEEKWYHAAFVHDVNTMPLPYREVSDLVEDARLHYCYRLALHREKRRLGL	not soluble
MSRNDSLISIIVPVYNVEQYLSRCVDSLVNQTYHNIEIILVDDGSPDRSGEICDEYAKKDKRVKVIHQSNGGLSDARNTALDIAKGDYLMFVDSDDWIEKKTCEILNRLASDYKADTVIFGLNFVFDSGKVIRSKRGMAGLTDKNMCMKYLIHNVARGGIFNYACNKMFSSHLFEGLRFPVGRLAEDQDVIYKLIHRSQRIYVTEQPLYNYYQRDGSITAAQYYPRLIRDRHELWLKRLDFIREYYPDLENYQIAQILGAAYVGIVKLEGNKQNGELKKKLICFSNKYILKEKELSVLDRKIKLHYYCYPLFWLYVKLFIK	not soluble
RDVVGVGFGPANLALAIAIEEHNAECPPRERISAQFFEKQDRFGWHPGMLLDGATMQIAFPKDLVTFRNPRSAFTFFNYLFDQGRLVDFVNHQTFFPTRHEFHDYLQWAARRVDADVRYGTAVETVRGIRGDDGVIDRFEVRTADGSTVIARNVVMGAGLRERIPEWANPSARCFHNHQFLFRLGEMPAPVHHRFVVLGAGQSAAEIVQYLHGN	not soluble
MGSDKIHHHHHHMNSPYTRSPRTIKHAFVTGATGLLGNNLVRALLKQGIKVTALVRSMEKARLQFGDLPIQYVKGDILNPEAFRSAFTDCDTLFHTAAFFRDSHKGGKHWQELYDTNVTGTTHLLKAAYEEGIRQMIHTSSIAVLKGERHQLIDETMSRDPSTKLDYYRSKILSENAVSNFLKEYPDLFLCYVLPGSMYGPGDMGPTATGQLILDYMQQKLPGIITKASYSVVDTRDVADIHILALKYGRRNERYLAAGRHMTMESIVKTLEEITGIPAPKRHIPIFLVQALAQWNELYHKITGKPVLVSKEIADITAEEYLRTYFSHKKTEQELGGQFRPFEETLLDTVRWYRNHGYLN	not soluble
GPGSMSSEHGEILRLWEKLRTIEDRTEEQVAMPSSKKTAYAHKYPMVDKLMHLIEPKFANLVRTPSVSRVVQSMIKYGSAEQVNRLLKWVSKDFSTYATDAYAHFVVCALVRHVPHEAYSKLMTHVIPSVPQLVAHKFGIEVLHSVYSSRWCSPADRSLLLLAVFKDNVAVMRRWPGYPEVEAVLKKNPSLQRRLLSRLFDLSDKLVSQKEAIGYPFVQRLVGTYVRCGTRDEVSELCDTLRPHITAISATREGAPLASLAFSLTEPKKRKEVLHSFNAQLGELCTSKYAAPVIARLFDLLYDAQMLRKYVASDLAEHIGQVVNSPYGYQILMHLLTPHEERKRRFLLPNWQEHNLFSMENKEWNHHTWLTPAFVPETVEICSKPAVTSHLAALPMLVKAFLQYVTDEAHSAKLNRHHAALIAREVLHVVQHEPLYKAAIQLSEDEEHALSKLAPAHGKREREDAAGEVETYAAAPTKCPKRENGSQKAAALTPADKRKKTKVPTVISAAAPLEGRRVKTDAKKRVKKS	soluble
MGSDKIHHHHHHMKYKIHWLYKTKRGLQTDLTTDYMNIEEVLQFAEDFEKTGRVKELLFYDEMDAEWSLKEMKKLSKQVEDEPQEILVYFDGGYDVQTKEAGVGICVYYKKGNKNYRIRRNAYIEGIYDNNEAEYASLLYSMNILEELGIKYEAVTLRGDSQVVLQQLAGEWPCYDEHLNHYLDQIEQKAKQMKLKLVCEPISRKQNKEAHQLATQALEGTVIDSHKEITE	not soluble
MSLTLPELFTSVFSHFKGQPDKAPIARKINGAYSPISYDSLAEDCRHFAAYLKERGIEPGDRVAILSENRPGWYLADIAILSLGATDVPLYPSLPPNQIEYILNNCSAKGIIVSNMLQLGKILSIWPKLPELNMVIVMNKLDEPVEDVIDLSQAKTEGKKVLEAKPWLLDGIKSNPDDVATLIYTSGTTGLPKGVMLTHRNICENVKSCSTVIRIDQTDSSLSFLPLSHAYERTGGYYLMFACGARINLAESVETISLNISEAKPTIIFTVPRLFDRMKASILKSVTSEGGVKEKIFFWAVSTGEKYHKQLATGKVSPLLAVQHNLADKLVYSKIRKKFGGKLRYFVSGGAALPQKTGEFFQSIGITILEGFGLTETSPVTNVNRPEKVKFGTVGLPVKNVEVKIAPDGEIMLKGPNIMKGYWKDEAASAEVLRDGWLYTGDIGEVDSEGYLKITDRKKHIIVTSGGKNIAPLQIENLILDSPYVDQAMIVGEKRPFLIALIVPDFLKLRDFAAEHQIKASSTKELINTKEVIEVYEKLLKSISRQLATHEKVRKFLLLEEPFSIENGMMTPTLKLKRKEITTKFSAEIDNLYNTLNMVYNTEGHHHHHH	not soluble
MNYVSLVLVSHSEEIAKGLKKLLKQIAPDVRIAAAGGSDGEIGTNALHIQEAIESVYSEKGTVVLFDLGSALLNAELALEMADRKERVRIADAPLVEGAYIAAVEAGLGKPLEEVVQACEAAKEMVKIAK	not soluble
MSTPSVHCLKPSPLHLPSGIPGSPGRQRRHTLPANEFRCLTPEDAAGVFEIEREAFISVSGNCPLNLDEVQHFLTLCPELSLGWFVEGRLVAFIIGSLWDEERLTQESLALHRPRGHSAHLHALAVHRSFRQQGKGSVLLWRYLHHVGAQPAVRRAVLMCEDALVPFYQRFGFHPAGPCAIVVGSLTFTEMHCSLRGHAALRRNSDR	soluble
MSSLTKQFVITQSVKNVSSIADGGEHVTPSEIHYGTEWYMRIKRDNGFMSFGLYCPMTGKTTNWSIVADIRVELMPLTGMWKSVECECKIAKSPSLISEVLRSTIMPWGRMMTNYVVDDALMIEVFVTIKSMTGFERPYNLRSFDESMEEFSDVVLLVGEKKFYVLRKYLAAQSKYFKALLLGSFEEGKSSEVTLTSIDPNDFQFFLEVLYGDSAINDLTVEGILHIADMYDTPMVVRKCEEFLIKGTKLPAKKKLQMAFRYKMENFMVLFFGNIQRKVFNFFRETTTLN	not soluble
MPQLSIIIPLFNSCNFISRALQSCINQTLKDIEILIIDDKSKDNSLNMVLEFAKKDPRIKIFQNEENLGTFASRNLGVLHSSSDFIMFLDSDDFLTLDACKIALKEMKKGFDLLCFDAFVHRVKTKQFYRFKQDEFFNQKEFLEFLSKQRHFCWSVWAKCFRKDIILKSFEKIKIDERLSYGEDVLFCYVYFMFCEKIAVFKTCIYHYEFNPNGRYENKNKEILWQNYQDKKKSNELVKKLCLNFKNNDFHKKLFEVLEKEEFDLQRRVDEARNLEHHHHHH	soluble
MKVAIIAANGGLFDAYKVINIGTAGAAADAEVGVFFTGEGLNLIHKEAHKQWPIPEGKEHFQQGFQKANVPSIAELLQMAQEMGVKLIACQMTMDVMGLDKDQFVDGIEVAGAATFLQFAKDADITLAF	not soluble
MANRTEKAAKTVKGTNPQFLVEKIIRQRIYDSMYWKEHCFALTAELVVDKGMDLRYIGGIYAGNIKPTPFLCLALKMLQIQPDKDIVLEFIQQEEFKYIRALGAMYLRLTFDSTEIYKYLEPLYNDFRKLRYMNKMGRFEAIYMDDFIDNLLREDRYCDIQLPRLQKRWALEEVDMLPSYKSLLDGDLVAMSDSDSEEEEVTKKEKPRLTSRRRSRSRDRERDVGDRREVREREKLKERRERGDDEPGPSSSGSGRRDDRDDRRRDRDRSRDRDRRDRRDDDRRDKKKESRRGGADNDEEREIAEANALRAKLGLAPLER	not soluble
MGSDKIHHHHHHMINQINFKTSHGGSREEGYIDFSASVNPYPPEWTDEMFERAKKISTFYPYYEKLEEELSDLIGEPITITAGITEALYLLGVWMRGRKVIIPKHTYGEYERISRMFGGRVIKGPNDPGKLAEFVERNSFVFFCNPNNPDGKFYREKEMKPLLDAIQDTNSILILDEAFIDFVKKPESPEGENIIRLRTFTKSYGLPGVRVGYVIGFVDAFRSVRMPWSIGSTGVAFLEFLLKDNFKHLRKTLPLIWKEKERIEKELKVKSDANFFIMKVREGIIEKLKENGILVRDCKSFGLPGYIRFSVRRREENDKLINILRKTLNT	not soluble
MGSDKIHHHHHHMLVENSHTPDALAEAFATVDGLMATGKFARSLSVMLPFVQTGELDAGLLDRTADCFFEMRDYENAVNVMRHVTATWPDDPSAWGKLGLMLQTKGDLLGAEQAFEEVLKRDPNSIPALTALNGIETFSVDSLYAQRLMSLSEREDLDAKHRALIHYALAQIAHGSGEAEVAFTLFQSARNEVAGPFAPAIFDEMVAEQEALFEPRPASEDASLLPKLVFIGGMPMSGTGLVDRILAQHPGVFSVGAKTALSRTHGAIRMHLAKTDRPCNYWDWMEHLSAEEIDIFRQYYLERALGGQVAGGKTIVDAHPLGCLEFGLAQFLFPEAKFVFMSRHPMDTALANIASNVLNGNALASRTEWIAQVMRTVYSSATVYASKLGDSMRLQSYEALVQNSEREIGLLLEHAGLEYNAACLTPNALCDVPQIATMLGQEELSTETQNQWLPYEEQLQGFYEQLGGERWVSAWEDFDKTLR	not soluble
MGSDKIHHHHHHMETDRLIIMDKLRAMRMFVRVVDAGSFSRVANELNVTTSMISKEIGRLEEDLGVRLLHRSTRGQQLTSIGEGYLKRCRELLVQVDDADAYVQHMQENPRGKLRINAPMALGITDLSQLFSAYMKQYPDVELDIQLGDESLDLIEHGFDLGFRASSQMLDSNYVGKPLVSFTYKVCASASYLESHPPIREVEDLAAHNCFVYSYFKSGNFWPLAQGITVAGSLKVNSTLFMKQVIEDGLGIGFLPSFVAREGIEQGKLVEVLPEVGRPDLTLYALYPNRLFTPPKLLSCIEFLQSWFLSRNLDEGWLQ	not soluble

Source: the DeepSol protein solubility set
